Legend:
[1] = target: BG505 N28 JCBv3 660; experiment: supernatant ELISA; row BG505.RnS7Mut-N28-JCBv3-660
[2] = target: BG505 N28 502 660-665; experiment: supernatant ELISA; row BG505.RnS7Mut-N28-502-660-665
[3] = target: 6931-DS-N28-502-660-665; experiment: supernatant ELISA; row scFc-3C-6931-DS-28-502-660-665
[4] = target: 6931-DS-N28-JCBv3-660; experiment: supernatant ELISA; row scFc-3C-6931-DS-28_JCB04V3-660
[5] = target: BG505 N28 JCBv2 660-665; experiment: supernatant ELISA; row BG505.RnS7Mut-N28-JCBv2-660-665
[6] = target: BG505 glycan-base trimer, VRC 7873 (4571_RnS7Mutv1-2G-3Mut-N28-JCBv3-N660-N665.667_613S_620S) (BG505-based) (HIV-1 (BG505, Clade A)); experiment: supernatant ELISA; row BG505.RnS7Mut-N28-JCBv3-660-665
[7] = target: ConC glycan-base trimer, VRC 7678 (6931_DS-N28-JCBv3-N660-N665.667) (ConC based) (HIV-1 (consensus clade C, ConC)); experiment: supernatant ELISA; row scFc-3C-6931-DS-28_JCB04V3-660-665
[8] = target: protein-base BG505 trimer, BG505-RnS7Mutv1-DS-SOSIP-2G-3Mut (HIV-1 (BG505, Clade A)); experiment: supernatant ELISA; row BG505-RnS(7MutV1)-2G-3mut-DS_SOSIP-scFc

| Substance | ELISA OD450 (raw) [1] [OD450] | ELISA OD450 (raw) [2] [OD450] | ELISA OD450 (raw) [3] [OD450] | ELISA OD450 (raw) [4] [OD450] | ELISA OD450 (raw) [5] [OD450] | ELISA OD450 (raw) [6] [OD450] | ELISA OD450 (raw) [7] [OD450] | ELISA OD450 (raw) [8] [OD450] |
| --- | --- | --- | --- | --- | --- | --- | --- | --- |
| VRC26.25 (antibody) | 0.652 | 0.555 | 0.874 | 0.979 | 0.544 | 0.564 | 0.798 | 0.71 |
| 3BNC117 (antibody) | 1.01 | 0.841 | 1.03 | 1.13 | 0.952 | 0.981 | – | 1.04 |
| PGT122 (antibody) | 0.906 | 0.864 | – | – | 1 | 0.874 | 1.48 | 1.05 |
| PGDM1400 (antibody) | 1.09 | 0.982 | 0.681 | 0.861 | 1.03 | 1.07 | 0.949 | 0.985 |
| 35O22 (antibody) | 0.728 | 0.785 | 0.916 | – | 0.628 | 0.632 | 0.954 | 1.01 |
| PGT145 (antibody) | 0.427 | 0.531 | 0.938 | – | – | 0.219 | – | 0.683 |
| VRC34.01 (antibody) | 0.648 | 0.437 | 0.718 | 0.89 | 0.729 | 0.682 | 1.05 | 0.783 |
| N6 (antibody) | 0.771 | 0.666 | 0.876 | 0.918 | 0.816 | 0.795 | – | 0.811 |
| F105 (antibody) | 0.196 | 0.106 | 0.337 | 0.432 | 0.141 | 0.157 | – | 0.134 |

From patent US20250197455A1
